In assay [1] the target is T1, His-tagged human PD-1 (human, UniProt Q15116 25-167, limits assumed).
T1 construct: also called PD-1-His; huPD-1-His; not shown: histidine tag
In words: Octet, antibody on AHC biosensors, His-tagged PD-1 as analyte. For orientation: Biolayer interferometry detects binding as a change in optical thickness at a sensor tip.

Assay [2] concerns the target T1, His-tagged human PD-1. The experiment in a line: Biacore (SPR), mAb captured on Protein A chip, histidine-tagged human PD-1 as analyte.
Assay [3] concerns the target T1, His-tagged human PD-1. The experiment in a line: Octet, His-tagged PD-1 as analyte.
In assay [4] the target is T1, His-tagged human PD-1. In words: Octet, antibody on AHC biosensors, His-tagged human PD-1 as analyte.
Another assay concerns the target cynomolgus CTLA-4 (cynomolgus, UniProt G7PL88 36-161). The experiment in a line: Octet (BLI), global fit, 1:1 binding model.
The target of a further assay is T2, cynomolgus PD-1 (cynomolgus, UniProt B0LAJ3 25-170).
T2 construct: also called cyno PD-1; not shown: carrier of the soluble construct (His tag or Fc)
T2 sequence (B0LAJ3 entry or part of it limits assumed, form in doubt): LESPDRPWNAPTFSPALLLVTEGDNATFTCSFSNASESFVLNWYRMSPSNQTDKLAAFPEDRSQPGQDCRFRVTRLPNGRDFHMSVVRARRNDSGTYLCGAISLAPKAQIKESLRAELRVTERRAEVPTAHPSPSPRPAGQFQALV
The experiment in a line: Octet (BLI), global fit, 1:1 binding model.

The target of another assay is human PD-1 (human, UniProt Q15116 25-167, limits assumed). The experiment in a line: Octet (BLI), global fit, 1:1 binding model.
human PD-1, sequence (Q15116 25-167 limits assumed): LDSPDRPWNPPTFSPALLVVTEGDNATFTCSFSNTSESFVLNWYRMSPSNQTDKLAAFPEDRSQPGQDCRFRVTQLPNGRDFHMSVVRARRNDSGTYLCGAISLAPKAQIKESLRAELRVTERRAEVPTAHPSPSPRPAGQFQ
The next assay addresses human CTLA-4 (human, UniProt P16410 36-161, limits assumed). The experiment in a line: Octet (BLI), global fit, 1:1 binding model.

Substitutions are numbered along the chain they refer to.

T1 sequence (Q15116 25-167 limits assumed): as above
cynomolgus CTLA-4, sequence (G7PL88 entry or part of it limits assumed, form in doubt): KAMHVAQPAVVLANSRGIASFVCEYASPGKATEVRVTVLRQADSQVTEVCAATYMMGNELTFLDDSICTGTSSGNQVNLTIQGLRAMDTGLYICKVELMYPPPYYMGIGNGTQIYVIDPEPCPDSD
human CTLA-4, sequence (P16410 36-161 limits assumed): as the sequence (G7PL88 entry or part of it limits assumed, form in doubt) above, with N14S, M106L counted along it

B1: XENP22553 (antibody, V domains shown)
VH: QIQLVQSGSELKKPGASVKVSCKASGYTFTHYGMNWVRQAPGQGLEWMGWINTYTGEPTYADGFTGRFVFSLDTSVSTAYLQISSLKAEDTAVYFCARDYYGSSPYWGQGTLVTVSS
VL: DVLMTQSPDSLAVSLGERATINCKSSQSIVHSNGNTYLEWYQQKPGQSPKLLIYKVSNRFSGVPDRFSGSGSGTDFTLTISSLQAEDVAVYYCFQGSHVPNTFGGGTKVEIK
Take B1: the Kd in the assay with His-tagged human PD-1 [1] was 15 to 19 nM; with His-tagged human PD-1 [2], 8.6 nM; with His-tagged human PD-1 [3] it was ~18 nM.

B2: XENP26928 (antibody, V domains shown)
VH: B1 VH
VL: B1 VL with N33E
In the assay with His-tagged human PD-1 [4], B2 came in with a dissociation constant (Kd) of 333 nM.

B3: XmAb20717 (bispecific antibody)
chain 1: not shown
chain 2: EIVLTQSPATLSASPGERVTLTCRASQSVGNDVAWYQQKPGQAPRLLINYASHRYTGVPDRFTGSGYGTEFTLTISSVQSEDFGVYYCQQDFSSPRTFGGGTKVEIKGKPGSGKPGSGKPGSGKPGSEVQLVESGGGLVKPGGSLRLSCVASGFTFSNYWMNWVRQAPGKGLEWVAEIRLYSNNYATHYAESVKGRFTISRDDSKSTLYLQMNNLKTEDTGVYYCTRYYGNYGGYFDVWGRGTLVTVSSEPKSSDKTHTCPPCPAPPVAGPSVFLFPPKPKDTLMISRTPEVTCVVVDVKHEDPEVKFNWYVDGVEVHNAKTKPREEQYNSTYRVVSVLTVLHQDWLNGKEYKCKVSNKALPAPIEKTISKAKGQPREPQVYTLPPSREQMTKNQVKLTCLVKGFYPSDIAVEWESNGQPENNYKTTPPVLDSDGSFFLYSKLTVDKSRWQQGNVFSCSVLHEALHSHYTQKSLSLSPGK
chain 3: not shown
With B3, the Kd is ~23 nM with cynomolgus CTLA-4, 5.5 nM with cynomolgus PD-1, 1.4 nM with human PD-1 and ~4.1 nM with human CTLA-4.

As a reminder, the Kd is the equilibrium constant for the complex coming apart.

The values are drawn from patent publication US20220204624A1 (Xencor, published 2022).
